Drawing on article PMC7599842, “PARP1 Deficiency Reduces Tumour Growth by Decreasing E2F1 Hyperactivation: A Novel Mechanism in the Treatment of Cancer” (Cancers, 2020), this text covers Kd for 1 molecule.

The assay has as its target T1, PARP1 (poly (ADP-ribose) polymerase-1) (UniProt P09874 1-1014).
T1 construct: PARP1, bought from Trevigen; Commercial protein; catalogue number not given; source: bought: Trevigen
Nature of the assay: BLI; GST-E2F1 immobilised on GST biosensors; serial dilutions of PARP1; FortéBio BLItz instrument, global fitting. The settings on record: both partners purified.

T1 sequence (P09874 whole entry): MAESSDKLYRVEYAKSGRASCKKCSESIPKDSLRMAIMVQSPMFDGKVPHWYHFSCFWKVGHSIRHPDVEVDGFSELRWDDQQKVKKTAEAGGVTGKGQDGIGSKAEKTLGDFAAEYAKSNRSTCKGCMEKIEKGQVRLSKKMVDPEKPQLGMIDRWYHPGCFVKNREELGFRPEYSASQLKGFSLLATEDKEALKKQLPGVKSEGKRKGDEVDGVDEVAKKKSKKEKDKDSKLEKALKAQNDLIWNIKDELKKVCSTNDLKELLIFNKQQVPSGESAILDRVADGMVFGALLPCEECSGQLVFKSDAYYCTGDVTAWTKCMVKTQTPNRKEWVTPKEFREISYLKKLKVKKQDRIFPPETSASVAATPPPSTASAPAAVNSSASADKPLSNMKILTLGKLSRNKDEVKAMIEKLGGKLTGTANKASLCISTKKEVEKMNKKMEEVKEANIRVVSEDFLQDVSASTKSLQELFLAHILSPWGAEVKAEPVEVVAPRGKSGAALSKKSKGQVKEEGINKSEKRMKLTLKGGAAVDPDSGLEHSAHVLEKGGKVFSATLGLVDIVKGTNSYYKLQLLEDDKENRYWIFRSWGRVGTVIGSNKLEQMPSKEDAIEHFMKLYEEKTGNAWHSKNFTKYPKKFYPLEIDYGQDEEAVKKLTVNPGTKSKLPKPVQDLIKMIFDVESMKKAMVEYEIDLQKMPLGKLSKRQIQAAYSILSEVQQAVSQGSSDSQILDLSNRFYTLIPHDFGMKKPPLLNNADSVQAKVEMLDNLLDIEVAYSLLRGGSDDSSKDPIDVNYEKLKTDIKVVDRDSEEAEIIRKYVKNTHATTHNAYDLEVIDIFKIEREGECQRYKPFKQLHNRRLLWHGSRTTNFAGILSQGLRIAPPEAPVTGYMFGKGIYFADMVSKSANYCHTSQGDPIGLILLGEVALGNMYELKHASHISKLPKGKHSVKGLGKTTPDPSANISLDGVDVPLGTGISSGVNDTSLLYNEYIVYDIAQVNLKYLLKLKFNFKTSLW

B1: Recombinant GST-hE2F1 (natural protein)
chain: not shown
notes: E2F1 transcription factor, human (hE2F1); also called GST-E2F1; source: recombinant, purified as described elsewhere [27]
Consider B1, for which binding was characterised by a dissociation constant (Kd) of 22 µM. That is a double-digit micromolar value.
